From the Human Domainome abundance scans (Beltran et al. 2025)

B1: REST corepressor 3, residues 87 to 134; numbered along this chain, Q9P2K3 (parent)
chain: DEWTVEDKVLFEQAFSFHGKSFHRIQQMLPDKTIASLVKYYYSWKKTR

Variants of: B1
Test: abundance fitness (aPCA) (normalised: wild type 0, dead -1); higher = more abundant; growth selection in yeast, the domain comes from the species named
Conditions: Homo sapiens

Abundance fitness of substitutions, site by site:
F22: V -0.809; S -0.897; R -1.07; L -0.693; W 0.52; A -0.692; Y -0.424; K -0.551; G -0.739; M -0.55
Q26: F -0.595; C -0.172; G -0.757; M -0.438; W -0.82; K 0.249; L -0.648; V -0.692; R -0.232; Y -0.428; S -0.79
H18: S -0.706; Y -0.05; T -0.39; G -0.764; W -0.894; Q -0.895; N -0.785; I 0.283; L -0.731; V -0.974
M28: H -0.364; A -0.382; W -0.589; F -0.502; R -0.618; P -0.733; Y -0.635; T -0.461; E -0.616; Q -0.429; K -0.686; S -0.517; L -0.558; G -0.806
R24: V -0.508; S -0.465; G -0.74
P30: F -0.182; K -0.177; G -0.957; L -0.928; M -0.891; H -0.498; Q -0.716; A -0.811; E -0.563; S -0.851
F17: A -0.307; S 0.262; E 0.376; Q -0.654; L -0.206; W -0.61; K 0.207; M -0.553; H -0.207; P -0.537; I -0.055; N -0.208; R 0.137; Y -0.592; C -0.853; G -0.793; D 0.259; T 0.36
I25: L -0.358; H -0.692; T -0.713; F -0.838; G -0.903; P -0.568; K -0.54; V -0.74; D -0.531; R -0.975; S -0.945; Y -0.522; M -0.708; E -0.693; A -0.567
S16: L -0.257; P -0.579; V -0.393; W -0.568; R -0.014; T -0.427; M -0.167; G -0.081; I -0.554; Y -0.391; K -0.22; Q -0.084
G19: V -0.805; D -0.487; S -0.487
L29: Q -0.692; C -0.795; A -0.832; I -0.315; G -0.794; W -0.932; F -0.302; K -0.645; R -0.771
H23: K 0.381; E -0.07; S -0.092; G -0.642; A -0.164; Y -0.702; P -0.331; N -0.124; C -0.649; V -0.3; W -0.56; D -0.517; Q -0.258; R -0.407
S21: A 0.221; H -0.185; M -0.344; V -0.323; G -1.12; R 0.233; Q 0.303; N 0.349; E 0.261; D 1.11; W -0.107; C 0.164; L -0.63
K20: N -0.306; S -0.393; T -0.399; A -0.343; G -0.278; P -0.704; L -0.665; M 0.033; W -0.551; C -0.337; R -0.544; E -0.353; V -0.737
Q27: D -0.62; S -0.482; I -0.924; V 0.395; G -0.673; R -0.244; K -0.419; A 0.069; C -0.752; L -0.326; T -0.406; M 0.449
